Assay results: US20190142860A1, “NUCLEIC ACID BASED TIA-1 INHIBITORS” (Aquinnah Pharmaceuticals, Inc., priority 2015, published 2019)

Assays:
[1] = biological target: Nucleolysin TIA-1 (endogenous mouse TIA1) (mouse) (UniProt P52912); test: TIA1 IP-MS, tau KO 3 cortex
[2] = biological target: Nucleolysin TIA-1 (endogenous mouse TIA1) (mouse) (UniProt P52912); test: TIA1 IP-MS, WT3 cortex
[3] = biological target: Nucleolysin TIA-1 (endogenous mouse TIA1) (mouse) (UniProt P52912); test: TIA1 IP-MS, tau KO 2 cortex
[4] = biological target: Nucleolysin TIA-1 (endogenous mouse TIA1) (mouse) (UniProt P52912); test: TIA1 IP-MS, WT1 cortex
[5] = biological target: Nucleolysin TIA-1 (endogenous mouse TIA1) (mouse) (UniProt P52912); test: TIA1 IP-MS, WT2 cortex
[6] = biological target: Nucleolysin TIA-1 (endogenous mouse TIA1) (mouse) (UniProt P52912); test: TIA1 IP-MS, tau KO 1 cortex

UniProt P52912, sequence (P52912 whole entry): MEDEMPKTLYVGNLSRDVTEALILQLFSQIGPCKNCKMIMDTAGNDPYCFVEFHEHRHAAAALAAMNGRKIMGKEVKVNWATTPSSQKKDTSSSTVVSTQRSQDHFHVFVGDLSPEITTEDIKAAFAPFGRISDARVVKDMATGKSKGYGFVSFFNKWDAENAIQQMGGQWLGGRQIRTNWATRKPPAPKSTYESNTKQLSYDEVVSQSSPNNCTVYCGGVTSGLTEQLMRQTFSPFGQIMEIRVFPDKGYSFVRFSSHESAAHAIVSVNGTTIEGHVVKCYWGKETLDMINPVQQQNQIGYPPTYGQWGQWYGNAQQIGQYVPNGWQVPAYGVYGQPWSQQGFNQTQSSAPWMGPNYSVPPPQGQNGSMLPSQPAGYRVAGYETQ

Substance	total ion current (normalized to TIA1 = 1000) [1]	total ion current (normalized to TIA1 = 1000) [2]	total ion current (normalized to TIA1 = 1000) [3]	total ion current (normalized to TIA1 = 1000) [4]	total ion current (normalized to TIA1 = 1000) [5]	total ion current (normalized to TIA1 = 1000) [6]
Synaptosomal-associated protein 25 (from UniProt P60879 1-206)	0	0	138	0	165	0
Thy-1 membrane glycoprotein (from UniProt P01831 20-131)	0	57.7	0	0	75.2	0
Transcriptional activator protein Pur-alpha (from UniProt P42669 2-321)	0	269	39.7	0	264	0
Transformer-2 protein homolog beta (from UniProt P62996 2-288)	0	0	33.3	0	70.9	0
Ubiquitin thioesterase OTUB1 (from UniProt Q7TQI3 2-271)	0	45.6	16.9	0	80.5	0
V-type proton ATPase catalytic subunit A (from UniProt P50516 1-617)	0	71.9	214	0	319	0

More lines, now with the values ahead:

total ion current (normalized to TIA1 = 1000) [1]	total ion current (normalized to TIA1 = 1000) [2]	total ion current (normalized to TIA1 = 1000) [3]	total ion current (normalized to TIA1 = 1000) [4]	total ion current (normalized to TIA1 = 1000) [5]	total ion current (normalized to TIA1 = 1000) [6]	Substance
0	54.8	26.9	0	204	0	Succinyl-CoA ligase [ADP/GDP-forming] subunit alpha, mitochondrial (from UniProt Q9WUM5 35-346)
0	0	26.9	0	99.7	0	Syntaxin-1B (from UniProt P61264 1-288)
0	0	0	0	106	0	Tripartite motif-containing protein 2 (from UniProt Q9ESN6 1-744)
0	220	40.4	0	299	0	Tubulin polymerization-promoting protein (from UniProt Q7TQD2 1-218)
0	0	0	6.22	0	0	U1 small nuclear ribonucleoprotein 70 kDa (from UniProt Q62376 2-448)
